Experimental data as given in the Immune Epitope Database (IEDB).

What was measured:
HLA-A*02:01 [1] = assay: IEDB peptide-MHC binding, cellular MHC/competitive/fluorescence; ≥ and ≤ were set here for values at or beyond the usual limits of such assays
HLA-A*02:03 = assay: as above
HLA-A*02:06 [2] = assay: as above
HLA-A*02:02 = assay: IEDB peptide-MHC binding, purified MHC/competitive/radioactivity; ≥ and ≤ were set here for values at or beyond the usual limits of such assays
HLA-A*68:02 [3] = assay: as above
HLA-A*68:02 [4] = assay: IEDB peptide-MHC binding, cellular MHC/competitive/fluorescence; ≥ and ≤ were set here for values at or beyond the usual limits of such assays
HLA-A*02:01 [5] = assay: IEDB peptide-MHC binding, purified MHC/competitive/radioactivity; ≥ and ≤ were set here for values at or beyond the usual limits of such assays
HLA-A*02:06 [6] = assay: as above
[7] = source organism: Vaccinia virus WR
[8] = source organism: Influenza A virus
[9] = source organism: Mammarenavirus machupoense
[10] = source organism: Mammarenavirus brazilense
[11] = source organism: Mammarenavirus guanaritoense

NVSRVVECLT
IC50 (HLA-A*02:01 [1]; [7]): 9.45 µM
IC50 (HLA-A*02:03; [7]): 14.3 µM
IC50 (HLA-A*02:06 [2]; [7]): 10 µM
IC50 (HLA-A*02:02; [7]): 4.66 µM
IC50 (HLA-A*68:02 [3]; [7]): 0.55 µM

MLIIFWFSL
IC50 (HLA-A*02:03; source organism: SARS-CoV1): 13 µM
IC50 (HLA-A*68:02 [4]; source organism: SARS-CoV1): 6.91 µM
IC50 (HLA-A*02:01 [5]; source organism: SARS-CoV1): 1.16 µM
IC50 (HLA-A*02:02; source organism: SARS-CoV1): 0.132 µM
IC50 (HLA-A*02:06 [6]; source organism: SARS-CoV1): 0.49 µM

VLFQNWGI
IC50 (HLA-A*02:03; [8]): 10.1 µM
IC50 (HLA-A*68:02 [4]; [8]): 54.8 µM
IC50 (HLA-A*02:01 [5]; [8]): 0.849 µM
IC50 (HLA-A*02:02; [8]): 1.55 µM
IC50 (HLA-A*02:06 [6]; [8]): 2.64 µM

PIPMSRLFM
IC50 (HLA-A*02:03; [7]): 9.13 µM
IC50 (HLA-A*02:06 [2]; [7]): 31.4 µM
IC50 (HLA-A*68:02 [4]; [7]): ≥ 70 µM
IC50 (HLA-A*02:02; [7]): 3.89 µM

DAEFVMCLEA
IC50 (HLA-A*02:01 [1]; [7]): 9.14 µM
IC50 (HLA-A*02:03; [7]): 7.3 µM
IC50 (HLA-A*02:06 [2]; [7]): 12.7 µM
IC50 (HLA-A*02:02; [7]): 2.41 µM
IC50 (HLA-A*68:02 [3]; [7]): 1.59 µM

KSYFTNAAL
IC50 (HLA-A*02:03; [9]): 7.18 µM
IC50 (HLA-A*02:06 [2]; [9]): 12 µM
IC50 (HLA-A*02:01 [5]; [9]): 4.97 µM
IC50 (HLA-A*02:02; [9]): 0.593 µM
IC50 (HLA-A*68:02 [3]; [9]): 0.106 µM

RSASGGVYL
IC50 (HLA-A*02:01 [1]; [10]): 32.5 µM
IC50 (HLA-A*02:03; [10]): 14.5 µM
IC50 (HLA-A*02:06 [2]; [10]): 13.6 µM
IC50 (HLA-A*02:02; [10]): 0.278 µM
IC50 (HLA-A*68:02 [3]; [10]): 4.44 µM

MNNVVQALT
IC50 (HLA-A*02:01 [1]; [11]): 7.48 µM
IC50 (HLA-A*02:03; [11]): 21.5 µM
IC50 (HLA-A*02:06 [2]; [11]): ≥ 70 µM
IC50 (HLA-A*02:02; [11]): 2.29 µM
IC50 (HLA-A*68:02 [3]; [11]): 0.281 µM

VLTSVDIET
IC50 (HLA-A*02:03; [7]): 11.3 µM
IC50 (HLA-A*68:02 [4]; [7]): 37.5 µM
IC50 (HLA-A*02:01 [5]; [7]): 0.136 µM
IC50 (HLA-A*02:02; [7]): 0.382 µM
IC50 (HLA-A*02:06 [6]; [7]): 0.014 µM

VTTNNLLEQL
IC50 (HLA-A*02:01 [1]; [7]): 21.6 µM
IC50 (HLA-A*02:03; [7]): 17.9 µM
IC50 (HLA-A*02:06 [2]; [7]): 5.91 µM
IC50 (HLA-A*02:02; [7]): 4.69 µM
IC50 (HLA-A*68:02 [3]; [7]): 2.94 µM

SMGVYQILA
IC50 (HLA-A*02:03; [8]): 7.05 µM
IC50 (HLA-A*02:06 [2]; [8]): 10.4 µM
IC50 (HLA-A*68:02 [4]; [8]): 16.8 µM
IC50 (HLA-A*02:01 [5]; [8]): 0.978 µM
IC50 (HLA-A*02:02; [8]): 0.518 µM

KIDKLTFQI
IC50 (HLA-A*02:03; [7]): 10.6 µM
IC50 (HLA-A*68:02 [4]; [7]): 36.9 µM
IC50 (HLA-A*02:01 [5]; [7]): 0.134 µM
IC50 (HLA-A*02:02; [7]): 0.141 µM
IC50 (HLA-A*02:06 [6]; [7]): 0.042 µM

DTCLLAISA
IC50 (HLA-A*02:01 [1]; [7]): 6.69 µM
IC50 (HLA-A*02:03; [7]): 6.45 µM
IC50 (HLA-A*02:06 [2]; [7]): 25.2 µM
IC50 (HLA-A*02:02; [7]): 4.33 µM
IC50 (HLA-A*68:02 [3]; [7]): 0.316 µM

EIARIENEM
IC50 (HLA-A*02:01 [1]; [7]): ≥ 70 µM
IC50 (HLA-A*02:03; [7]): 47.9 µM
IC50 (HLA-A*02:06 [2]; [7]): ≥ 70 µM
IC50 (HLA-A*02:02; [7]): 0.335 µM
IC50 (HLA-A*68:02 [3]; [7]): 0.0084 µM

DTSNNIAEYI
IC50 (HLA-A*02:01 [1]; [7]): 6.29 µM
IC50 (HLA-A*02:03; [7]): 9.22 µM
IC50 (HLA-A*02:06 [2]; [7]): 45.7 µM
IC50 (HLA-A*02:02; [7]): 3.33 µM
IC50 (HLA-A*68:02 [3]; [7]): 0.047 µM

TQSGALEVLM
IC50 (HLA-A*02:01 [1]; [7]): 10.6 µM
IC50 (HLA-A*02:03; [7]): 15.4 µM
IC50 (HLA-A*68:02 [4]; [7]): 12.3 µM
IC50 (HLA-A*02:02; [7]): 0.836 µM
IC50 (HLA-A*02:06 [6]; [7]): 2.23 µM

QAIMDKNIIL
IC50 (HLA-A*02:03; [8]): 11.4 µM
IC50 (HLA-A*02:06 [2]; [8]): 13.4 µM
IC50 (HLA-A*68:02 [4]; [8]): 8.92 µM
IC50 (HLA-A*02:01 [5]; [8]): 1.02 µM
IC50 (HLA-A*02:02; [8]): 0.937 µM
